Measurements reported in the DeepSol protein solubility set.

Assay: soluble on expression in E. coli; label from the status in PepcDB or PDB records

Sequence	soluble on expression in E. coli
MGSDKIHHHHHHMKPSIYSLTRNDLIAWTIEHGEKKFRATQIWDWLYRKRVQSFEEMTNLSKDFIALLNENFLVNPLKQRIVQESADGTVKYLFELPDGMLIETVLMRQHYGLSVCVTTQVGCNIGCTFCASGLIKKQRDLNNGEITAQIMLVQKYFDERGQGERISHVVVMGIGEPFDNYDNVLKFLRTINDDNGLAIGARHITVSTSGLAHKIRDFANEGVQVNLAVSLHAPNNELRSSIMRINRSFPLEKLFAAIEYYIETTNRRVTFEYIMLNGVNDSPENAQELADLTKKIRKLSYVNLIPYNPVTEHDQYSRSPKERVDAFYDVLKKNGVNCVVRQEHGTDIDAACGQLRSNTMKRDREKATAGTAQ	not soluble
MGSDKIHHHHHHMTRKFGEIAFTPEVQAAQEERGSRQTYDRYIANGPANDTITPNIAKFIAQLEGFYLGTVSSNGYPYIQFRGGSPGFLKVLDEKTLGFADFSGNLQYITVGNLSSNDKAFLFLMDYRHRQRIKIWGRAEYIEGESSLLEQVRVADYPAQVERAILFHVEATSENCPQHIPVRYSEREVKAMMAPLENRIAELEQQLSEQNSSSKTGKQLPSRD	not soluble
RGKGKDIVMNPLSFGEFVKVARPDIYSKLPRIKRITKVKECSKLRPWREELYDLFILYLKSGGFPRAVKDILEGESIAELHEPTWNSIQKFYGPL	not soluble
MREMTADPYLGKYITCVSARSTDKEILKKAQDGGIATALMVYALEEGIIDGTIVAGEGDRPWEPRPIVAMSREDILKARGTKYSISPQIAWLKEATRSFGLDKVGVTGVCCQMQAVRKAQLYPINMRDVPGKVALTVGLFCMENFPYKSLQTIVEDHAAQSLGSVKKMEITKGKFWVHTERGNVSTVPLKATHKYEQPGCHVCLDYVSSLADISTGSVGSPDGWSTVFIRTKKGNEVWSKAVAAGMFETKPIEDVKPGLELLTKLAKEKIDKNRKTLEERRNFGVNKALRDPYAAAALEHHHHHH	not soluble
MGDSFYIRTHFELEPSPPSGLGFTRGDVFHVLDTLHPGPGQSHARGGHWLAVRMGRDLREQERGIIPNQSRAEQLASLEAAQRAVGVGPGSSAGSNARAEFWRLRGLRRGAKKTTQRSREDLSALTRQGRYPPYERVVLREASFKRPVVILGPVADIAMQKLTAEMPDQFEIAETVSRTDSPSKIIKLDTVRVIAEKDKHALLDVTPSAIERLNYVQYYPIVVFFIPESRPALKALRQWLAPASRRSTRRLYAQAQKLRKHSSHLFTATIPLNGTSDTWYQELKAIIREQQTRPIWTAEDQLHHHHHH	soluble
MGSDKIHHHHHHMTEIKYKVITKDAFALPYTIIKAKNQPTKGVIVYIHGGGLMFGKANDLSPQYIDILTEHYDLIQLSYRLLPEVSLDCIIEDVYASFDAIQSQYSNCPIFTFGRSSGAYLSLLIARDRDIDGVIDFYGYSRINTEPFKTTNSYYAKIAQSINETMIAQLTSPTPVVQDQIAQRFLIYVYARGTGKWINMINIADYTDSKYNIAPDELKTLPPVFIAHCNGDYDVPVEESEHIMNHVPHSTFERVNKNEHDFDRRPNDEAITIYRKVVDFLNAITMV	not soluble
MGSDKIHHHHHHMSALVDPVTDTDLDAYVDDQLDVTRRIEVEAFLSTRPEAAARVMSDLRTRDELRVALAGSKGMARPATADAARRLERGLARGRIFGVLQRSAAVAAFVAAGWLANGIIGPMSVTKVVASPQPPAYVDEAVRAHRTTLVRETMPSQPEAPNYSAGEIRAATAIVMPSLPKDWKVRDVQIYPSRFGPSVEMAVDTKDMGLVSLFAIRPGTFDVVKPTVAPSGDISSAYFQIGEVAYAVVAKSGVRDLDRAAETLARTLY	not soluble
MGSDKIHHHHHHMEAQDHNNEQQVTEYQVMSYLRAHPQFFEHHTGLLAELYLPSPHGQGTVSLAERQQLAQRDRIRVLDAKLAQLMKYGEENDAIGEKVHRLSLGLLATERMEVLVSLLEHSLHEDFQVPYVSLRLWAKPRESGNGSLPIFASVDQELQRWAQGLATPYCGNRPGMPLQGWFGVEARPASFAVMALKAQQVFGVLALASDDDKRFYPDMGTLYLKRISELISAALLRHIIV	not soluble
MGSDKIHHHHHHVPLLFGTAGVPLSAKERSTEAGVKRVRELQLDAMEVEFVQGVRMGEEKAQKIAQIAVEEKVALSCHGPYWINFNSQEPEKVAASRERLLHSARISKILGVKSVVFHPAFYHQDDPQVVLVRTAGELMKVREILDAEGNDVILRPETTGKPSQLGTLQEVLTLAQAVPGVLPCIDISHLHARSNGRINTYDEFCQVLEAAAESLGDRWVKHVHFHVSGIDYGVKGEKKHLILKESDLRYPELMKAFHTFGVEGLVICESPNLEEDALLLQTTYRTMA	not soluble
MGSDKIHHHHHHMTTLNSEKVFRDPILGFIHVDDSIILDLINSHEMQRLRRIKHLGVANSVFHGGEQSRFQHSLGVYEISRRMIQALDDNEKFANERHWDHENDLLVQAAALLHDVGHGAYSHTFEHLFDTVHEQFTQKIIVDPSTEVNAILKTVSNDFPERVAAVIGKSYPDKRVVQLISSQLDADRMDYLLRDAYYTGAEYGRYDIERILRLMRPIKDGFAFDIAGVHSIEDYVISRYQMYLQVYFHPVSRGMEVVLENLLIRAQDIFDKDPDNPIFFPIIRPIFALKNKIDIQDYISLDDSVFNTAFNIWQKVDDKILADLSKRFLDRKPLKSIVLNEKTKDLIPSLRKKIKDRGFDPKYYTGENDATDLPYESYSPKTGEEGIKFVYPDGQQVELSKLSPLVEAINGKESIDRRFFFPREMLSNPEINQLYLKYKKTY	not soluble
MRVFKTILLVVLMTLSQAMVAQTSPIPMLERAANQIISILKENKARLKSNPEIIYKAVEENLLPNVDVAGMSRSVLGRQAWSKATEAERVEFSKAFTRLVIRTYSSPLAQYSDETVQFLPLRGSLNSRFIRVNSVIVRSAGQNIPLSYSLVSKNGKWKIYDISVEGVSLLQSFRSQFAQALQHSSISQVIKEMQQKQIKKASLEHHHHHH	not soluble
MSLQDIYGTLANLNTKLKQKLSHPYLAKHISAPKIDEDKLLLFHALFEEADIKNNDRENYIVTAMLVQSALDTHDEVTTARVIKRDENKNRQLTVLAGDYFSGLYYSLLSEMKDIYMIRTLATAIKEINEHKIRLYDRSFKDENDFFESVGIVESALFHRVAEHFNLPRWKKLSSDFFVFKRLMNGNDAFLDVIGSFIQLGKTKEEILEDCFKKAKNSIESLLPLNSPIQNILINRLKTISQDQTYHQKVEEGEGHHHHHH	soluble
MGSDKIHHHHHHMEINKIYCMDCLEGMKQLKDKTVDVVVTSPPYNIGIKYNKYSDNLSREDYLNWIEEVVKEIKRVLKDDGSFFINVGYTAKDPWIAFDVANVIRKHFKLQNTIHWVKSIAIQKEDVGNYPNIIGDIAVGHYKPINSDRFLSIMHEYIFHFTKNGNVKLDKLAIGVPYQDKSNIKRFNRKGDLRDRGNTWFIPYETIQSKEKERPHPATFPPKLPEMCIKLHGVKKTNLVLDPFMGIGSTAIACIRLGIDYIGFEIDEYYCRVAEERIKKELLKTDGKFDNVKNKNIITLDAFI	not soluble
QVPILHRDADFLLRALQPDDFVRTSRYENANREHLAPWEPLRDPGYFSVDNARARTLLQVASMDEGEALLLLLLDPDDGEVLGRCSYTNIVRGVFQACHLGFSLAAAAQGRGLMARALRVANRYCFEQLGLHRIMASHLPRNARSERLLESLGFEKEGYARAYLKIAGVWEDHVLRALVDAPR	not soluble
GPLGSATITQDTPINQIFTDTALAEKMKTVLGKTNVTDTVSQTDLDQVTTLQADRLGIKSIDGVEYLNNLTQINFSNNQLTDITPLKNLTKLVDILMNNNQIADITPLANLTNLTGLTLFNNQITDIDPLKNLTNLNRLELSSNTISDISALSGLTSLQQLSFGNQVTDLKPLANLTTLERLDISSNKVSDISVLAKLTNLESLIATNNQISDITPLGILTNLDELSLNGNQLKDIGTLASLTNLTDLDLANNQISNLAPLSGLTKLTELKLGANQISNISPLAGLTALTNLELNENQLEDISPISNLKNLTYLTLYFNNISDISPVSSLTKLQRLFFYNNKVSDVSSLANLTNINWLSAGHNQISDLTPLANLTRITQLGLNDQAWTNAPVNYKANVSIPNTVKNVTGALIAPATISDGGSYTEPDITWNLPSYTNEVSYTFSQPVTIGKGTTTFSGTVTQPLKA	soluble
